Assay results: the supplement of paper PMC9170038

How the values were obtained:
[1] = test system: MS2 coat protein; assay: apparent KD of MS2 coat protein, switch ON state; designed switch direction (-1 OFF switch, 1 ON switch): 1; higher = weaker reporter binding; settings: FMN input: 0 or 200 uM; Eterna round: R93 (includes R88 designs)
How it was run: (§1)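 Designed RNA switches were transcribed on-chip from Illumina sequencing clusters. SNAP-549-labelled MS2 coat protein was titrated onto them in twofold steps from 0.7 or 1.5 nM to 3 µM in 100 mM Tris-HCl pH 7.5, 80 mM KCl, 4 mM MgCl2, either without or with constant ligand. Apparent KD reflects the per-design median of normalised cluster binding-curve fits.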

[2] = test system: MS2 coat protein; assay: apparent KD of MS2 coat protein, switch OFF state (with FMN for OFF switches, without FMN for ON switches); designed switch direction (-1 OFF switch, 1 ON switch): 1; higher = weaker reporter binding; settings: FMN input: 0 or 200 uM; Eterna round: R93 (includes R88 designs)
How it was run: as §1

Sequence | apparent KD of MS2 coat protein [1] [nM] | apparent KD of MS2 coat protein [2] [nM]
AUUCCAAAUAGUCAGGAUAUCAGAAGUAAGACAUGAGGAUCACCCAUGUACUUAGUAAAAGUAACUGAGAAGGGACAGGGUGUAA [JR_SS002_Sub405] | 17.4 | 16.1
CAGAGACAUGAGGAUCACCCAUGUAGGAUUAUGGGAGGAUAUACAAAGACGAGAGUCAGAGUAGAAGGCCUAGGAA [salish99-ss1-141] | 21.1 | 57.6
CGCGAACAUGAGGAUCACCCAUGUGAAAAACACAGAGGAUAUGUCGCAUGCGUGUAAAAGACAGAAGGCUGUCGCG [mod of top voted: #3] | 19.7 | 84
CGGAGACAUGAGGAUCACCCAUGUGAGAAGAGGCGAGGAUAUCGAAAGAAAGAAGAGAAACGAGAAGGCGCGAGUA [salish99-SS1-066] | 20.3 | 31.9
CGGAGACAUGAGGAUCACCCAUGUGAGAAGAGGCGAGGAUAUGGAAAUAAAGAAGAGAAAUGAGAAGGCGCGAGCC [salish99-SS1-082] | 40.6 | 36.3
CUGGACAUAGUAUAGGAUAUAUGAAUAAUUACAUGAGGAUCACCCAUGUCCAUUUAUAUGGGAACAUAGAAGGGUGGUAGUUAAG [Mat - Same state - Malcolm Mod - D142] | 147 | 97.6
GAAAAACAUGAGGAUCACCCAUGUAAAAAUAUGGGAGGAUAUUCAAAGACGAAAGGGAAAGAAGAAGGCCUAAAAG [Garnet 4] | 82.7 | 1300
GAAAAACAUGAGGAUCACCCAUGUAAAAAUAUGGGAGGAUAUUGAAAGACGAAAGUCAAACAAGAAGGCCUAAAAG [Garnet 2] | 22.2 | 119
GAAAAACAUGAGGAUCACCCAUGUAGAAAUAUGGGAGGAUAUACAAAGACGAAAGUCAAAGUAGAAGGCCUGAAAG [77%, Mat - Mod of Eli, 1] | 27.1 | 136
GAAAAACAUGAGGAUCACCCAUGUAGAAAUAUGGGAGGAUAUACAAAGACGAAAGUCAAAGUAGAAGGCCUUAAAG [JL S1 M-MoE mod 1 In the Red] | 28.3 | 54.9
GAAAAACAUGAGGAUCACCCAUGUAGAGAUAUGGGAGGAUAUACGAAGACGAAAGACGAUGUAGAAGGCCUAAAAG [Garnet 59] | 80.4 | 234
GAAAAACAUGAGGAUCACCCAUGUGUAAAUAUGGAAGGAUAUACAAAGACGUAAGUCAAAGUAGAAGGUCUAAAAG [Mat - Same State 1 - Eli mod - D17] | 18.8 | 23.5
GAAAAACAUGAGGAUCACCCAUGUGUAAAUAUGGGAGGAUAUACAAAGACGAAAGUCAAAGUAGAAGGCCUAAAAG [Mat - Same State 1 - Eli mod - D5] | 23.2 | 190
GAACCACAUGAGGAUCACCCAUGUCAAAGAAAUCAAGGAUAUGCACAAAAGGAAAUAACUGCAGAAGGUGAACGAA [62%, Redo, 1] | 22.6 | 40.9
GAACCACAUGAGGAUCACCCAUGUCUAAAUAUGGGAGGAUAUGCACAAAAGGAAAUAACUGCAGAAGGCCUACGAA [62%, Redo, 3] | 25.7 | 135
GAAGACAUAGUUCAGGAUAUAGGAAUAGUCACAUGAGGAUCACCCAUGUGCAUUUAUAUGCGCACUUAGAAGGGAGGUAGUUAUA [SameState2 Malc#22] | 32.2 | 26.4
GAAGACAUAGUUCAGGAUAUAGGAAUAGUCACAUGAGGAUCACCCAUGUGCAUUUAUAUGCGCGCUUAGAAGGGAGGUAGAUAAU [Mat - Same state - Malcolm Mod - D119] | 24.5 | 21.2
GAAGACAUAGUUCAGGAUAUGGUAAUAGUCACAUGAGGAUCACCCAUGUGCAUUUAUAUGCGCGAUCAGAAGGGAGGUAGAUAAG [Mat - Same state - Malcolm Mod - D116] | 18.6 | 18.3
GAGGACAUAGUAUAGGAUAUAUGAAUAAUUACAUGAGGAUCACCCAUGUCCAUUUAUAUGGGAACAUAGAAGGGUGGUAGUUGUC [Mat - Same state - Malcolm Mod - D130] | 73 | 200
